Target: creb3_human CREB3 (UniProt O43889)
Chain of UniProt O43889 (O43889 whole entry): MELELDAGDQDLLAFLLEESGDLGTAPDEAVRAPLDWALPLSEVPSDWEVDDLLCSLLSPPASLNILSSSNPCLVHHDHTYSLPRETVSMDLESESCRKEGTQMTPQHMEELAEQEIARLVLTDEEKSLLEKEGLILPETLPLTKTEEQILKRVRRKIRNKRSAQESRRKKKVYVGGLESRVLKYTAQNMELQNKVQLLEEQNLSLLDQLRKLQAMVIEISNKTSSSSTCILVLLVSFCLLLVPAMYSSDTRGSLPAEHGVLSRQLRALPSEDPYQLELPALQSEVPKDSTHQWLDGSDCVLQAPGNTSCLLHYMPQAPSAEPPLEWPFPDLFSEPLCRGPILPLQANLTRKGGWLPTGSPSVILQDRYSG

Effect of a mutation on the interaction, decreasing interaction:
Host cell factor 1 (Homo sapiens), P51610 R228D
Host cell factor 1 (Homo sapiens), P51610 P30S
Host cell factor 1 (Homo sapiens), P51610 E289A;W290A;K291A
Host cell factor 1 (Homo sapiens), P51610 P79S
Host cell factor 1 (Homo sapiens), P51610 P134S
Host cell factor 1 (Homo sapiens), P51610 C82D
Host cell factor 1 (Homo sapiens), P51610 P197S
Host cell factor 1 (Homo sapiens), P51610 S338A
Host cell factor 1 (Homo sapiens), P51610 P319S

Target: po2f1_human POU2F1 (UniProt P14859)
Chain of UniProt P14859 (P14859 whole entry): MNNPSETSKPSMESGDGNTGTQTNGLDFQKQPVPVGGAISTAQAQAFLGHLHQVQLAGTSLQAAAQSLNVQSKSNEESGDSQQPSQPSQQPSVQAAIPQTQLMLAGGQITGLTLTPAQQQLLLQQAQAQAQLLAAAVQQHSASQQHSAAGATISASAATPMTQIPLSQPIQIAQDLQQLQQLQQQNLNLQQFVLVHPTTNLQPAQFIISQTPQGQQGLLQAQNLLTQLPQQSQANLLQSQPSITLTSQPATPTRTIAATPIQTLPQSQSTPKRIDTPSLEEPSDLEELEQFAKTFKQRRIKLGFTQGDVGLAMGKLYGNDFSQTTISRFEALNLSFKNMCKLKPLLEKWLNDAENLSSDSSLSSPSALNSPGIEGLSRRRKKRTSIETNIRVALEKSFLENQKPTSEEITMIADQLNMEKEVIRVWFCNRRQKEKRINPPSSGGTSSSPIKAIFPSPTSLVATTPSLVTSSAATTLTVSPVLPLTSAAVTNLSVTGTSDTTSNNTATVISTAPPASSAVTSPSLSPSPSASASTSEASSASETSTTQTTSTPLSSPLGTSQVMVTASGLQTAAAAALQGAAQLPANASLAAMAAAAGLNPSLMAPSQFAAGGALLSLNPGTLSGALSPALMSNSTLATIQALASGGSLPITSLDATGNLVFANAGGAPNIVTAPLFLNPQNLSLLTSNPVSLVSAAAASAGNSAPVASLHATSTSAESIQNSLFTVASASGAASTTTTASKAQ

Effect of a mutation on the interaction, decreasing interaction:
Host cell factor 1 (Homo sapiens), P51610 E289A;W290A;K291A
Host cell factor 1 (Homo sapiens), P51610 R344A;K345A
Host cell factor 1 (Homo sapiens), P51610 P134S

From IntAct's records for PubMed 10629049
